Measured values as given in paper PMC8495200, “Domain Organization of the UBX Domain Containing Protein 9 and Analysis of Its Interactions With the Homohexameric AAA + ATPase p97 (Valosin-Containing Protein)” (Frontiers in Cell and Developmental Biology, 2021).
Where “and” joins values, the source holds several entries; their conditions need not be identical. Equal values may be shown once.

B1: p97 (valosin-containing protein), D. discoideum, recombinant (enzyme, UniProt P90532 1-793, looked up)
chain: MATIEDTSKDNNNPILERKKAPNRLFVEEAINDDNSVVTLNPETMDQLQFFRGDTLLIKGKKRRDTVCIVLSDPTIDPSKIRMNKVVRNNLRVRLGDMISVHQCSDVKYGKRIHVLPIDDTIEGLSGNLFDLYLKPYFLEAYRPVRKGDLFLVRGGMRAVEFKVVETDPGEYCIVAPETFIHCEGEAVKREDEDRLDEVGYDDIGGVRKQLGQIRELVELPLRHPQLFKNIGVKPPKGILLYGPPGCGKTMIARAVANETGAFFFLINGPEIMSKLAGESESNLRKAFEEAEKNAPSIIFIDEIDSIAPKREKTQGEVERRIVSQLLTLMDGLKSRAHVIVMGATNRPNSIDPALRRFGRFDREIDITIPDATGRLEIMRIHTKNMKLDETVDLEAVANETHGYVGADLAALCTESALQCIREKMDVIDLEDETISAEILESMSVTQDHFRTALTLSNPSALRETVVEVPTTTWEDIGGLEGVKRELRETVQYPVEHPEKFRKFGMQPSKGVLFYGPPGCGKTLLAKAIANECQANFISIKGPELLTMWFGESEANVRELFDKARQAAPCVLFFDELDSIARSRGSSQGDAGGAGDRVINQILTEMDGMNAKKNVFIIGATNRPDIIDPAILRPGRLDQLIYIPLPDLPSRVAILKACLNKSPVAKDVDLEFLGQKTQGFSGADLTEICQRACKLAIRESIEKDIESTKARQESGDTKMEDDSVDPVPEITRDHFQEAMRSARRSVSDNDIRKYESFAQTLVQSRGLGNNFKFPDQESSGQFNQDQSDDLFSN
notes: AAA+ ATPase p97 (VCP), D. discoideum; purification as in Rijal et al., 2016; Whether p97 was made as a GST fusion and cleaved is not clearly said; also called VCP; source: E. coli XL1 Blue or ArcticExpress, purified
B2: UBXD9, full length, GST tag cleaved (natural protein, D. discoideum, UniProt Q54X06 1-573, looked up)
chain: MSSIHIIYKTGKTTVPVIASTVMMEVLKKACQYFKIDDSRFQLMYGSTYVNLSLPFRLSGIPNLSRVTIMEKKGASISTVKIAIQMDDGKRFQSNFKTSSTLWDILLTFETEQNLSLTKRFNDVNQYIEPVVTILNREISTIESLQKSSLASINVNEASLIKLTFKQTDRTNEEVLPIIVSYQSPSTPTESPTTTTTTTTTTTTNNTTKEESPKTTNSPTNSESSTKSQNSSGSQQSPIIISPPTQQSTSSDVSTPTMDIDSPLVKNVEKSPISDLGLNPSSNIPLPDKTYNNETTTTTTTTSNNDVQVSTPPKIATMDHKDRELLVYTPSNNQVDPKSIRHNEKMTEEDIKRLVEANKRVKKEKEEFDSVLRTKAMREREAYKKHKNFSTSIIRIVFPGGQKILEMKFLIREKISNLLKYINEYILAQPNDSVYLYTTPPNKTLDLNTTFLKEGLFPRAKIFLGVSPGTTLIFSELVNELIEESNNKNNNNNNNNNTTTTTTSTISQEELDKQEEEQERIEEQMKIEEEKQLKLEDEQEKERQRALRSMFNNEKEGDSQKRPVPKWFTAGKK
notes: The cleaved state is stated for the Blue Native PAGE; also called full-length UBXD9; source: E. coli XL1 Blue or ArcticExpress, purified, liberated from the beads with PreScission protease

Biological target: the molecule itself
Assay: native gel or EMSA; Blue Native PAGE, purified recombinant non-tagged proteins in 1 x PBS, 1 mM DTT, 1 mM ATP; 4-16% Bis-Tris gels, cold room, Coomassie staining

| Protein | stoichiometry N |
| --- | --- |
| B1 | 6 and 2 |
| B2 | 6 |
